B1: Scm3_(83–169) (domain or fragment)
chain: IIPKLTDDEVMERHKLADENMRKVWSNIISKYESIEEQGDLVDLKTGEIVEDNGHIKTLTANNSTKDKRTKYTSVLRDIIDISDEED

Tests used:
[1] = target: single chain Cse4-H4 with Cse4 Met181Ser/Met184Gly (budding yeast | , UniProt P36012;P02309, Met181Ser | Met184Gly); test: ITC
[2] = target: single chain Cse4-H4 with Cse4 Ala189Ser/Ser190Val (budding yeast | , UniProt P36012;P02309, Ala189Ser | Ser190Val); test: ITC
Scm3_(83–169) = target: B1; test: ITC
[3] = target: T1, Scm3 residues 93-169, as it stands in the single-chain molecule scSCH (yeast, UniProt Q12334 93-169); test: NMR structure
T1 sequence: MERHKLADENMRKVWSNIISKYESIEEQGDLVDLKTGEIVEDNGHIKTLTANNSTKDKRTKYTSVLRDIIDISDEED

B1
fold reduction of the binding affinity against the wild type [1]: 5.5 fold | fold reduction of the binding affinity against the wild type [2]: 9 fold

B2: single chain Cse4-H4 (His6-KK-Cse4_(151–207)-LVPRGS-H4_(45–103)) (complex)
chain: not shown
binding result (Scm3_(83–169)): binds

B3: Histone H4 residues 42-103, as it stands in the single-chain molecule scSCH (domain or fragment)
chain: not shown
binding result [3]: binds

— PMC3077455 (Nature, 2011)
